{
  "source": "patent US20230272029A1",
  "about": "“CO-AGONISTS AT GLP-1 AND GIP RECEPTORS SUITABLE FOR ORAL DELIVERY” (Novo Nordisk A/S, priority 2020, published 2023)",
  "key": {"human GLP-1 receptor": {"molecular_target": "human GLP-1 receptor (human, UniProt P43220 24-463)", "assay": "cell-based or functional assay"}, "human GIP receptor": {"molecular_target": "T1, human GIP receptor (human, UniProt P48546 22-466)", "T1 sequence (looked up)": "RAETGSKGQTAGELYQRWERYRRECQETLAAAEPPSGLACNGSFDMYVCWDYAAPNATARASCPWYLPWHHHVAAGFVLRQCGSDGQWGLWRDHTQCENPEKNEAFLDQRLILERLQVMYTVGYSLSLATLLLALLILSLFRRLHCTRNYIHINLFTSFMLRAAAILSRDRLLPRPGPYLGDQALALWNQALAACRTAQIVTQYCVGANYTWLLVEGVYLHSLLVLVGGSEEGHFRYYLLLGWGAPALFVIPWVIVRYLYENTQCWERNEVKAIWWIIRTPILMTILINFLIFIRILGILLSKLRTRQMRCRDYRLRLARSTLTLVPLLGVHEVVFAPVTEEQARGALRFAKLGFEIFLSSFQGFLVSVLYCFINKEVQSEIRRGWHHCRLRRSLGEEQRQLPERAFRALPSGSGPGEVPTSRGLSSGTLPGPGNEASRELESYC", "assay": "cell-based or functional assay"}},
  "note": "Starred links: 1 amine or outer side, 2 acyl side, 3 side chain; linkers in the order of their positions; H or OH if unused. Non-standard residues stand in square brackets, D forms with d. Groups on a side chain read outwards from the residue. No end group written: not given here. *: point of attachment. C18 diacid = O=C(O)CCCCCCCCCCCCCCCCC(=O)*; γGlu = O=C(O)[C@H](CCC(=O)[*:2])N[*:1]; εLys = N[C@@H](CCCCN[*:1])C(=O)[*:2]; AEEA = NCCOCCOCC(=O)O; Aib = CC(C)(N)C(=O)O",
  "data": [
    {"binder": "Y[Aib]EGTFTSDYSILLEK([εLys-εLys-γGlu-C18 diacid])QAAREFIEWLLAGGPSSGAPPPS-OH (N-terminus assumed; SMILES CC[C@H](C)[C@H](NC(=O)[C@H](Cc1ccccc1)NC(=O)[C@H](CCC(=O)O)NC(=O)[C@H](CCCNC(=N)N)NC(=O)[C@H](C)NC(=O)[C@H](C)NC(=O)[C@H](CCC(N)=O)NC(=O)[C@H](CCCCNC(=O)[C@@H](N)CCCCNC(=O)[C@@H](N)CCCCNC(=O)CC[C@H](NC(=O)CCCCCCCCCCCCCCCCC(=O)O)C(=O)O)NC(=O)[C@H](CCC(=O)O)NC(=O)[C@H](CC(C)C)NC(=O)[C@H](CC(C)C)NC(=O)[C@@H](NC(=O)[C@H](CO)NC(=O)[C@H](Cc1ccc(O)cc1)NC(=O)[C@H](CC(=O)O)NC(=O)[C@H](CO)NC(=O)[C@@H](NC(=O)[C@H](Cc1ccccc1)NC(=O)[C@@H](NC(=O)CNC(=O)[C@H](CCC(=O)O)NC(=O)C(C)(C)NC(=O)[C@@H](N)Cc1ccc(O)cc1)[C@@H](C)O)[C@@H](C)O)[C@@H](C)CC)C(=O)N[C@@H](CCC(=O)O)C(=O)N[C@@H](Cc1c[nH]c2ccccc12)C(=O)N[C@@H](CC(C)C)C(=O)N[C@@H](CC(C)C)C(=O)N[C@@H](C)C(=O)NCC(=O)NCC(=O)N1CCC[C@H]1C(=O)N[C@@H](CO)C(=O)N[C@@H](CO)C(=O)NCC(=O)N[C@@H](C)C(=O)N1CCC[C@H]1C(=O)N1CCC[C@H]1C(=O)N1CCC[C@H]1C(=O)N[C@@H](CO)C(=O)O)", "note": "[Compound No. 31]", "values": [
      {"measurement": "hGLP-1R, CRE Luc 0% HSA EC50 (pM)", "setting": "human GLP-1 receptor", "value": 4.2, "unit": "pM"},
      {"measurement": "hGLP-1R, CRE Luc 1% HSA EC50 (pM)", "setting": "human GLP-1 receptor", "value": 202, "unit": "pM"},
      {"measurement": "hGIPR, CRE Luc 0% HSA EC50 (pM)", "setting": "human GIP receptor", "value": 4.7, "unit": "pM"},
      {"measurement": "hGIPR, CRE Luc 1% HSA EC50 (pM)", "setting": "human GIP receptor", "value": 188, "unit": "pM"}
    ]},
    {"binder": "Y[Aib]EGTFTSDYSILLEEQAAREFINWLLAGGPSK([εLys-εLys-γGlu-C18 diacid])GAPPPS-OH (N-terminus assumed; SMILES CC[C@H](C)[C@H](NC(=O)[C@H](Cc1ccccc1)NC(=O)[C@H](CCC(=O)O)NC(=O)[C@H](CCCNC(=N)N)NC(=O)[C@H](C)NC(=O)[C@H](C)NC(=O)[C@H](CCC(N)=O)NC(=O)[C@H](CCC(=O)O)NC(=O)[C@H](CCC(=O)O)NC(=O)[C@H](CC(C)C)NC(=O)[C@H](CC(C)C)NC(=O)[C@@H](NC(=O)[C@H](CO)NC(=O)[C@H](Cc1ccc(O)cc1)NC(=O)[C@H](CC(=O)O)NC(=O)[C@H](CO)NC(=O)[C@@H](NC(=O)[C@H](Cc1ccccc1)NC(=O)[C@@H](NC(=O)CNC(=O)[C@H](CCC(=O)O)NC(=O)C(C)(C)NC(=O)[C@@H](N)Cc1ccc(O)cc1)[C@@H](C)O)[C@@H](C)O)[C@@H](C)CC)C(=O)N[C@@H](CC(N)=O)C(=O)N[C@@H](Cc1c[nH]c2ccccc12)C(=O)N[C@@H](CC(C)C)C(=O)N[C@@H](CC(C)C)C(=O)N[C@@H](C)C(=O)NCC(=O)NCC(=O)N1CCC[C@H]1C(=O)N[C@@H](CO)C(=O)N[C@@H](CCCCNC(=O)[C@@H](N)CCCCNC(=O)[C@@H](N)CCCCNC(=O)CC[C@H](NC(=O)CCCCCCCCCCCCCCCCC(=O)O)C(=O)O)C(=O)NCC(=O)N[C@@H](C)C(=O)N1CCC[C@H]1C(=O)N1CCC[C@H]1C(=O)N1CCC[C@H]1C(=O)N[C@@H](CO)C(=O)O)", "note": "[Compound No. 44]", "values": [
      {"measurement": "hGLP-1R, CRE Luc 0% HSA EC50 (pM)", "setting": "human GLP-1 receptor", "value": 4.2, "unit": "pM"},
      {"measurement": "hGLP-1R, CRE Luc 1% HSA EC50 (pM)", "setting": "human GLP-1 receptor", "value": 241, "unit": "pM"},
      {"measurement": "hGIPR, CRE Luc 0% HSA EC50 (pM)", "setting": "human GIP receptor", "value": 5.7, "unit": "pM"},
      {"measurement": "hGIPR, CRE Luc 1% HSA EC50 (pM)", "setting": "human GIP receptor", "value": 365, "unit": "pM"}
    ]},
    {"binder": "Y[Aib]EGTFTSDYSK([εLys-εLys-γGlu-C18 diacid])LLEEQAAREFIEWLLAGGPSSGAPPPS-OH (N-terminus assumed; SMILES CC[C@H](C)[C@H](NC(=O)[C@H](Cc1ccccc1)NC(=O)[C@H](CCC(=O)O)NC(=O)[C@H](CCCNC(=N)N)NC(=O)[C@H](C)NC(=O)[C@H](C)NC(=O)[C@H](CCC(N)=O)NC(=O)[C@H](CCC(=O)O)NC(=O)[C@H](CCC(=O)O)NC(=O)[C@H](CC(C)C)NC(=O)[C@H](CC(C)C)NC(=O)[C@H](CCCCNC(=O)[C@@H](N)CCCCNC(=O)[C@@H](N)CCCCNC(=O)CC[C@H](NC(=O)CCCCCCCCCCCCCCCCC(=O)O)C(=O)O)NC(=O)[C@H](CO)NC(=O)[C@H](Cc1ccc(O)cc1)NC(=O)[C@H](CC(=O)O)NC(=O)[C@H](CO)NC(=O)[C@@H](NC(=O)[C@H](Cc1ccccc1)NC(=O)[C@@H](NC(=O)CNC(=O)[C@H](CCC(=O)O)NC(=O)C(C)(C)NC(=O)[C@@H](N)Cc1ccc(O)cc1)[C@@H](C)O)[C@@H](C)O)C(=O)N[C@@H](CCC(=O)O)C(=O)N[C@@H](Cc1c[nH]c2ccccc12)C(=O)N[C@@H](CC(C)C)C(=O)N[C@@H](CC(C)C)C(=O)N[C@@H](C)C(=O)NCC(=O)NCC(=O)N1CCC[C@H]1C(=O)N[C@@H](CO)C(=O)N[C@@H](CO)C(=O)NCC(=O)N[C@@H](C)C(=O)N1CCC[C@H]1C(=O)N1CCC[C@H]1C(=O)N1CCC[C@H]1C(=O)N[C@@H](CO)C(=O)O)", "note": "[Compound No. 40]", "values": [
      {"measurement": "hGLP-1R, CRE Luc 0% HSA EC50 (pM)", "setting": "human GLP-1 receptor", "value": 6.4, "unit": "pM"},
      {"measurement": "hGLP-1R, CRE Luc 1% HSA EC50 (pM)", "setting": "human GLP-1 receptor", "value": 334, "unit": "pM"},
      {"measurement": "hGIPR, CRE Luc 0% HSA EC50 (pM)", "setting": "human GIP receptor", "value": 9.5, "unit": "pM"},
      {"measurement": "hGIPR, CRE Luc 1% HSA EC50 (pM)", "setting": "human GIP receptor", "value": 501, "unit": "pM"}
    ]},
    {"binder": "Y[Aib]EGTFTSDYSILLEEQAAREFIEWLLAGGPSK([εLys-εLys-γGlu-C18 diacid])GAPPPS-OH (N-terminus assumed; SMILES CC[C@H](C)[C@H](NC(=O)[C@H](Cc1ccccc1)NC(=O)[C@H](CCC(=O)O)NC(=O)[C@H](CCCNC(=N)N)NC(=O)[C@H](C)NC(=O)[C@H](C)NC(=O)[C@H](CCC(N)=O)NC(=O)[C@H](CCC(=O)O)NC(=O)[C@H](CCC(=O)O)NC(=O)[C@H](CC(C)C)NC(=O)[C@H](CC(C)C)NC(=O)[C@@H](NC(=O)[C@H](CO)NC(=O)[C@H](Cc1ccc(O)cc1)NC(=O)[C@H](CC(=O)O)NC(=O)[C@H](CO)NC(=O)[C@@H](NC(=O)[C@H](Cc1ccccc1)NC(=O)[C@@H](NC(=O)CNC(=O)[C@H](CCC(=O)O)NC(=O)C(C)(C)NC(=O)[C@@H](N)Cc1ccc(O)cc1)[C@@H](C)O)[C@@H](C)O)[C@@H](C)CC)C(=O)N[C@@H](CCC(=O)O)C(=O)N[C@@H](Cc1c[nH]c2ccccc12)C(=O)N[C@@H](CC(C)C)C(=O)N[C@@H](CC(C)C)C(=O)N[C@@H](C)C(=O)NCC(=O)NCC(=O)N1CCC[C@H]1C(=O)N[C@@H](CO)C(=O)N[C@@H](CCCCNC(=O)[C@@H](N)CCCCNC(=O)[C@@H](N)CCCCNC(=O)CC[C@H](NC(=O)CCCCCCCCCCCCCCCCC(=O)O)C(=O)O)C(=O)NCC(=O)N[C@@H](C)C(=O)N1CCC[C@H]1C(=O)N1CCC[C@H]1C(=O)N1CCC[C@H]1C(=O)N[C@@H](CO)C(=O)O)", "note": "[Compound No. 43]", "values": [
      {"measurement": "hGLP-1R, CRE Luc 0% HSA EC50 (pM)", "setting": "human GLP-1 receptor", "value": 4, "unit": "pM"},
      {"measurement": "hGLP-1R, CRE Luc 1% HSA EC50 (pM)", "setting": "human GLP-1 receptor", "value": 360, "unit": "pM"},
      {"measurement": "hGIPR, CRE Luc 0% HSA EC50 (pM)", "setting": "human GIP receptor", "value": 5.6, "unit": "pM"},
      {"measurement": "hGIPR, CRE Luc 1% HSA EC50 (pM)", "setting": "human GIP receptor", "value": 444, "unit": "pM"}
    ]},
    {"binder": "Y[Aib]EGTFTSDYSILLEK([AEEA-AEEA-γGlu-C18 diacid])QAAREFIEWLLAGGPSSGAPPPS-OH (N-terminus assumed; SMILES CC[C@H](C)[C@H](NC(=O)[C@H](Cc1ccccc1)NC(=O)[C@H](CCC(=O)O)NC(=O)[C@H](CCCNC(=N)N)NC(=O)[C@H](C)NC(=O)[C@H](C)NC(=O)[C@H](CCC(N)=O)NC(=O)[C@H](CCCCNC(=O)COCCOCCNC(=O)COCCOCCNC(=O)CC[C@H](NC(=O)CCCCCCCCCCCCCCCCC(=O)O)C(=O)O)NC(=O)[C@H](CCC(=O)O)NC(=O)[C@H](CC(C)C)NC(=O)[C@H](CC(C)C)NC(=O)[C@@H](NC(=O)[C@H](CO)NC(=O)[C@H](Cc1ccc(O)cc1)NC(=O)[C@H](CC(=O)O)NC(=O)[C@H](CO)NC(=O)[C@@H](NC(=O)[C@H](Cc1ccccc1)NC(=O)[C@@H](NC(=O)CNC(=O)[C@H](CCC(=O)O)NC(=O)C(C)(C)NC(=O)[C@@H](N)Cc1ccc(O)cc1)[C@@H](C)O)[C@@H](C)O)[C@@H](C)CC)C(=O)N[C@@H](CCC(=O)O)C(=O)N[C@@H](Cc1c[nH]c2ccccc12)C(=O)N[C@@H](CC(C)C)C(=O)N[C@@H](CC(C)C)C(=O)N[C@@H](C)C(=O)NCC(=O)NCC(=O)N1CCC[C@H]1C(=O)N[C@@H](CO)C(=O)N[C@@H](CO)C(=O)NCC(=O)N[C@@H](C)C(=O)N1CCC[C@H]1C(=O)N1CCC[C@H]1C(=O)N1CCC[C@H]1C(=O)N[C@@H](CO)C(=O)O)", "note": "[Compound No. 32]", "values": [
      {"measurement": "hGLP-1R, CRE Luc 0% HSA EC50 (pM)", "setting": "human GLP-1 receptor", "value": 5, "unit": "pM"},
      {"measurement": "hGLP-1R, CRE Luc 1% HSA EC50 (pM)", "setting": "human GLP-1 receptor", "value": 982, "unit": "pM"},
      {"measurement": "hGIPR, CRE Luc 0% HSA EC50 (pM)", "setting": "human GIP receptor", "value": 7.1, "unit": "pM"},
      {"measurement": "hGIPR, CRE Luc 1% HSA EC50 (pM)", "setting": "human GIP receptor", "value": 679, "unit": "pM"}
    ]}
  ]
}
